The values below come from article PMC5440694 (Nature Communications, 2017).

Holding throughout (conditions): one partner purified
For assay [1], the target named is T1, biotinylated HA0 ectodomain of A/Perth/16/2009 (H3N2) (Influenza A virus A/Perth/16/2009 (H3N2), UniProt C6KNH7, strain, biotin on the BirA biotinylation site). The assay can be described thus: BLI. A general note: In BLI a coated tip is dipped into the sample, and binding shifts an interference pattern.
Assay [2] deals with T1, biotinylated HA0 ectodomain of …. Kind of assay: yeast display selection (FACS) with next-generation sequencing.
The target in assay [3] is biotinylated HA0 ectodomain of A/Solomon Islands/3/2006 (H1N1) (Influenza A virus A/Solomon …, UniProt A7Y8I1, strain, biotin on the BirA biotinylation site). The assay is described as above.

B1: C05 Fab variant VVDAGW, in supernatant of transfected 293T cells (Fab, V domains shown)
VH: QVQLQESGGGLVQPGESLRLSCVGSGSSFGESTLSYYAVSWVRQAPGKGLEWLSIINAGGGDIDYADSVEGRFTISRDNSKETLYLQMTNLRVEDTGVYYCAKHMSMQQVVDAGWERADLVGDAFDVWGQGTMVTVSS
VL: DIQLTQSPSSLSASVGDRVTLTCQASQDIRKFLNWYQQKPGKGPKLLIYDASNLQRGVPSRFSGGGSGTDFTLIISSLQPEDVGTYYCQQYDGLPFTFGGGTKVVIK
Turning to B1, the binding result in assay [1] is “binds”.

B2: C05 Fab variant YEPAGW displayed on yeast (Fab, V domains shown)
VH: QVQLQESGGGLVQPGESLRLSCVGSGSSFGESTLSYYAVSWVRQAPGKGLEWLSIINAGGGDIDYADSVEGRFTISRDNSKETLYLQMTNLRVEDTGVYYCAKHMSMQQYEPAGWERADLVGDAFDVWGQGTMVTVSS
VL: DIQLTQSPSSLSASVGDRVTLTCQASQDIRKFLNWYQQKPGKGPKLLIYDASNLQRGVPSRFSGGGSGTDFTLIISSLQPEDVGTYYCQQYDGLPFTFGGGTKVVIK
Turning to B2, in assay [2], the binding result is “binds”.

B3: C05 Fab variant VVGSGW displayed on yeast (Fab, V domains shown)
VH: QVQLQESGGGLVQPGESLRLSCVGSGSSFGESTLSYYAVSWVRQAPGKGLEWLSIINAGGGDIDYADSVEGRFTISRDNSKETLYLQMTNLRVEDTGVYYCAKHMSMQQVVGSGWERADLVGDAFDVWGQGTMVTVSS
VL: DIQLTQSPSSLSASVGDRVTLTCQASQDIRKFLNWYQQKPGKGPKLLIYDASNLQRGVPSRFSGGGSGTDFTLIISSLQPEDVGTYYCQQYDGLPFTFGGGTKVVIK
On to B3, for which the binding result in assay [3] and in assay [2] was “binds” throughout.

B4: C05 Fab variant VATSGW displayed on yeast (Fab, V domains shown)
VH: QVQLQESGGGLVQPGESLRLSCVGSGSSFGESTLSYYAVSWVRQAPGKGLEWLSIINAGGGDIDYADSVEGRFTISRDNSKETLYLQMTNLRVEDTGVYYCAKHMSMQQVATSGWERADLVGDAFDVWGQGTMVTVSS
VL: DIQLTQSPSSLSASVGDRVTLTCQASQDIRKFLNWYQQKPGKGPKLLIYDASNLQRGVPSRFSGGGSGTDFTLIISSLQPEDVGTYYCQQYDGLPFTFGGGTKVVIK
As to B4, in assay [3], the binding result is given as “binds”.

B5: C05 Fab variant VVDSGW displayed on yeast (Fab, V domains shown)
VH: QVQLQESGGGLVQPGESLRLSCVGSGSSFGESTLSYYAVSWVRQAPGKGLEWLSIINAGGGDIDYADSVEGRFTISRDNSKETLYLQMTNLRVEDTGVYYCAKHMSMQQVVDSGWERADLVGDAFDVWGQGTMVTVSS
VL: DIQLTQSPSSLSASVGDRVTLTCQASQDIRKFLNWYQQKPGKGPKLLIYDASNLQRGVPSRFSGGGSGTDFTLIISSLQPEDVGTYYCQQYDGLPFTFGGGTKVVIK
Take B5: the binding result in assay [2] was “binds”.

B6: C05 Fab variant WPEIGF displayed on yeast (Fab, V domains shown)
VH: QVQLQESGGGLVQPGESLRLSCVGSGSSFGESTLSYYAVSWVRQAPGKGLEWLSIINAGGGDIDYADSVEGRFTISRDNSKETLYLQMTNLRVEDTGVYYCAKHMSMQQWPEIGFERADLVGDAFDVWGQGTMVTVSS
VL: DIQLTQSPSSLSASVGDRVTLTCQASQDIRKFLNWYQQKPGKGPKLLIYDASNLQRGVPSRFSGGGSGTDFTLIISSLQPEDVGTYYCQQYDGLPFTFGGGTKVVIK
With B6, in assay [3], the binding result is “binds”.

B7: C05 Fab variant VASSGW displayed on yeast (Fab, V domains shown)
VH: QVQLQESGGGLVQPGESLRLSCVGSGSSFGESTLSYYAVSWVRQAPGKGLEWLSIINAGGGDIDYADSVEGRFTISRDNSKETLYLQMTNLRVEDTGVYYCAKHMSMQQVASSGWERADLVGDAFDVWGQGTMVTVSS
VL: DIQLTQSPSSLSASVGDRVTLTCQASQDIRKFLNWYQQKPGKGPKLLIYDASNLQRGVPSRFSGGGSGTDFTLIISSLQPEDVGTYYCQQYDGLPFTFGGGTKVVIK
As to B7, the binding result in assay [3] is “binds”.

B8: C05 Fab variant VEEAGW, in supernatant of transfected 293T cells (Fab, V domains shown)
VH: QVQLQESGGGLVQPGESLRLSCVGSGSSFGESTLSYYAVSWVRQAPGKGLEWLSIINAGGGDIDYADSVEGRFTISRDNSKETLYLQMTNLRVEDTGVYYCAKHMSMQQVEEAGWERADLVGDAFDVWGQGTMVTVSS
VL: DIQLTQSPSSLSASVGDRVTLTCQASQDIRKFLNWYQQKPGKGPKLLIYDASNLQRGVPSRFSGGGSGTDFTLIISSLQPEDVGTYYCQQYDGLPFTFGGGTKVVIK
notes: not shown: His6, C-terminal, kept
As for B8, the binding result in assay [1] is on record as “binds”.

B9: C05 Fab variant LPSSGW displayed on yeast (Fab, V domains shown)
VH: QVQLQESGGGLVQPGESLRLSCVGSGSSFGESTLSYYAVSWVRQAPGKGLEWLSIINAGGGDIDYADSVEGRFTISRDNSKETLYLQMTNLRVEDTGVYYCAKHMSMQQLPSSGWERADLVGDAFDVWGQGTMVTVSS
VL: DIQLTQSPSSLSASVGDRVTLTCQASQDIRKFLNWYQQKPGKGPKLLIYDASNLQRGVPSRFSGGGSGTDFTLIISSLQPEDVGTYYCQQYDGLPFTFGGGTKVVIK
As to B9, the binding result in assay [3] is “binds”.

B10: C05 Fab variant VASAGW displayed on yeast (Fab, V domains shown)
VH: QVQLQESGGGLVQPGESLRLSCVGSGSSFGESTLSYYAVSWVRQAPGKGLEWLSIINAGGGDIDYADSVEGRFTISRDNSKETLYLQMTNLRVEDTGVYYCAKHMSMQQVASAGWERADLVGDAFDVWGQGTMVTVSS
VL: DIQLTQSPSSLSASVGDRVTLTCQASQDIRKFLNWYQQKPGKGPKLLIYDASNLQRGVPSRFSGGGSGTDFTLIISSLQPEDVGTYYCQQYDGLPFTFGGGTKVVIK
Consider B10, for which, in assay [2], the binding result was “binds”.

B11: C05 Fab variant IPGSGW displayed on yeast (Fab, V domains shown)
VH: QVQLQESGGGLVQPGESLRLSCVGSGSSFGESTLSYYAVSWVRQAPGKGLEWLSIINAGGGDIDYADSVEGRFTISRDNSKETLYLQMTNLRVEDTGVYYCAKHMSMQQIPGSGWERADLVGDAFDVWGQGTMVTVSS
VL: DIQLTQSPSSLSASVGDRVTLTCQASQDIRKFLNWYQQKPGKGPKLLIYDASNLQRGVPSRFSGGGSGTDFTLIISSLQPEDVGTYYCQQYDGLPFTFGGGTKVVIK
As to B11, the binding result in assay [3] is listed as “binds”.

B12: C05 Fab variant VVDSGW, in supernatant of transfected 293T cells (Fab, V domains shown)
VH: QVQLQESGGGLVQPGESLRLSCVGSGSSFGESTLSYYAVSWVRQAPGKGLEWLSIINAGGGDIDYADSVEGRFTISRDNSKETLYLQMTNLRVEDTGVYYCAKHMSMQQVVDSGWERADLVGDAFDVWGQGTMVTVSS
VL: DIQLTQSPSSLSASVGDRVTLTCQASQDIRKFLNWYQQKPGKGPKLLIYDASNLQRGVPSRFSGGGSGTDFTLIISSLQPEDVGTYYCQQYDGLPFTFGGGTKVVIK
notes: as for B8
Take B12: in assay [1], the binding result was “binds”.

B13: C05 Fab variant WYVHLW displayed on yeast (Fab, V domains shown)
VH: QVQLQESGGGLVQPGESLRLSCVGSGSSFGESTLSYYAVSWVRQAPGKGLEWLSIINAGGGDIDYADSVEGRFTISRDNSKETLYLQMTNLRVEDTGVYYCAKHMSMQQWYVHLWERADLVGDAFDVWGQGTMVTVSS
VL: DIQLTQSPSSLSASVGDRVTLTCQASQDIRKFLNWYQQKPGKGPKLLIYDASNLQRGVPSRFSGGGSGTDFTLIISSLQPEDVGTYYCQQYDGLPFTFGGGTKVVIK
With B13, the binding result in assay [2] is listed as “binds”.

B14: C05 Fab variant LPGGGW displayed on yeast (Fab, V domains shown)
VH: QVQLQESGGGLVQPGESLRLSCVGSGSSFGESTLSYYAVSWVRQAPGKGLEWLSIINAGGGDIDYADSVEGRFTISRDNSKETLYLQMTNLRVEDTGVYYCAKHMSMQQLPGGGWERADLVGDAFDVWGQGTMVTVSS
VL: DIQLTQSPSSLSASVGDRVTLTCQASQDIRKFLNWYQQKPGKGPKLLIYDASNLQRGVPSRFSGGGSGTDFTLIISSLQPEDVGTYYCQQYDGLPFTFGGGTKVVIK
With B14, in assay [2], the binding result is “binds”.

B15: C05 Fab variant VPGAGW displayed on yeast (Fab, V domains shown)
VH: QVQLQESGGGLVQPGESLRLSCVGSGSSFGESTLSYYAVSWVRQAPGKGLEWLSIINAGGGDIDYADSVEGRFTISRDNSKETLYLQMTNLRVEDTGVYYCAKHMSMQQVPGAGWERADLVGDAFDVWGQGTMVTVSS
VL: DIQLTQSPSSLSASVGDRVTLTCQASQDIRKFLNWYQQKPGKGPKLLIYDASNLQRGVPSRFSGGGSGTDFTLIISSLQPEDVGTYYCQQYDGLPFTFGGGTKVVIK
In the case of B15, the binding result in assay [3] and in assay [2] was “binds” in each case.

B16: C05 Fab variant YDPGGW displayed on yeast (Fab, V domains shown)
VH: QVQLQESGGGLVQPGESLRLSCVGSGSSFGESTLSYYAVSWVRQAPGKGLEWLSIINAGGGDIDYADSVEGRFTISRDNSKETLYLQMTNLRVEDTGVYYCAKHMSMQQYDPGGWERADLVGDAFDVWGQGTMVTVSS
VL: DIQLTQSPSSLSASVGDRVTLTCQASQDIRKFLNWYQQKPGKGPKLLIYDASNLQRGVPSRFSGGGSGTDFTLIISSLQPEDVGTYYCQQYDGLPFTFGGGTKVVIK
On to B16, for which the binding result in assay [2] is on record as “binds”.

B17: C05 Fab variant VVEAGW, in supernatant of transfected 293T cells (Fab, V domains shown)
VH: QVQLQESGGGLVQPGESLRLSCVGSGSSFGESTLSYYAVSWVRQAPGKGLEWLSIINAGGGDIDYADSVEGRFTISRDNSKETLYLQMTNLRVEDTGVYYCAKHMSMQQVVEAGWERADLVGDAFDVWGQGTMVTVSS
VL: DIQLTQSPSSLSASVGDRVTLTCQASQDIRKFLNWYQQKPGKGPKLLIYDASNLQRGVPSRFSGGGSGTDFTLIISSLQPEDVGTYYCQQYDGLPFTFGGGTKVVIK
In the case of B17, the binding result in assay [1] was “binds”.
